Measured values reported in patent US6033845.

Key:
[1] = target: maltose binding protein (Escherichia coli (strain K12)) [MBP: P0AEX9]
[2] = target: 7B-maltose binding protein fusion protein (Feline Infectious Peritonitis Virus (Applicant's field isolate)) [MBP: P0AEX9]; details: scale: colonies, mean less control, at 20 µg/ml 7B

“white blood cells from a cat known to have clinical FIP (cat #88) (cells without a defined receptor)” was tested, and the No. of Colonies (T-cell colony stimulation, two days) (colonies, mean less control) [1] was -1 and the No. of Colonies (T-cell colony stimulation, two days) [2] was 31.
